Test results reported in patent US20250289899A1.

Key:
[1] = target: recombinant His-tagged human FcγRIa (human) (UniProt P12314); experiment: SPR (Biacore), His-tagged FcγRIa captured on anti-His chip, antibody in solution, resonance units against antibody concentration
[2] = target: recombinant His-tagged human FcγRIIIa (176-Val [V]) (human) (UniProt P08637); experiment: SPR (Biacore), His-tagged FcγRIIIa-V captured on anti-His chip, antibody in solution, resonance units against antibody concentration
recombinant His-tagged human FcγRIIIa (176-Val [V]) (human), sequence (P08637 17-208 F176V limits assumed): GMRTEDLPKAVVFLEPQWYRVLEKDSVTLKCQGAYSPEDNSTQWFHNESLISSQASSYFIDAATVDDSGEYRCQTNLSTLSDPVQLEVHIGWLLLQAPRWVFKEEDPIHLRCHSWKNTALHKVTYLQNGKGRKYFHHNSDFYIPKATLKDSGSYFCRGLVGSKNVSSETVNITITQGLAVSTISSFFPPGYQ

recombinant His-tagged human FcγRIa (human), sequence (P12314 16-288 limits assumed): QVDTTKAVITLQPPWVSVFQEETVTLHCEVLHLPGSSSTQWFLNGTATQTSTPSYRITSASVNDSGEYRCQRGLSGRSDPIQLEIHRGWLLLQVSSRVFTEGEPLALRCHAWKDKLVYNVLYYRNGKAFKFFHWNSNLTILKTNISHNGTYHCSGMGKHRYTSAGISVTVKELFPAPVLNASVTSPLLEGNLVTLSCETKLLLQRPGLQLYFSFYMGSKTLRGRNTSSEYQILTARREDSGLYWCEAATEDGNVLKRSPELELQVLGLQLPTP

For “IgG1-b12 (anti-HIV gp120 antibody, wild-type IgG1 Fc)”, the EC50 (read off the curve) [1] was 60 nM and the EC50 (read off the curve) [2] was 400 nM.
